Laboratory results reported in the Human Domainome abundance scans (Beltran et al. 2025).
± gives the uncertainty stated by the source.

B1: Mineralocorticoid receptor, residues 600 to 675; numbered along this chain, P08235 (parent)
chain: SKICLVCGDEASGCHYGVVTCGSCKVFFKRAVEGQHNYLCAGRNDCIIDKIRRKNCPACRLQKCLQAGMNLGARKS

Variants of: B1
Experiment: abundance fitness (aPCA) (normalised: wild type 0, dead -1); higher = more abundant; growth selection in yeast, the domain comes from the species named
Conditions: Homo sapiens

Row | Variant | abundance fitness
1 | SKICLVCGDEASGCHYGVVTCGSCKVFFKRAVEGQHNYLCAGRNDCIIDKIRRKNCPACRLQKCLWAGMNLGARKS | -0.029 ± 0.053
2 | SKICLVCGDEASGCHYGVVTCGSCKVFFKRAVEGQHNYLCAGRNDCIIDKIRRKNCPACRLQKCLTAGMNLGARKS | -0.051 ± 0.066
3 | SKICLVCGDEASGCHYGVVTCGSCKVFFKRAVEGQHNYLCAGRNDCIIDKIRRKNCPACRLQKCLRAGMNLGARKS | -0.014 ± 0.039
4 | SKICLVCGDEASGCHYGVVTCGSCKVFFKRAVEGQHNYLCAGRNDCIIDKIRRKNCPACRLQKCLYAGMNLGARKS | -0.094 ± 0.11
5 | SKICLVCGDEASGCHYGVVTCGSCKVFFKRAVEGQHNYLCAGRNDCIIDKIRRKNCPACRLQKCLVAGMNLGARKS | -0.039 ± 0.05
6 | SKICLVCGDEASGCHYGVVTCGSCKVFFKRAVEGQHNYLCAGRNDCIIDKIRRKNCPACRLQKCLQAGMNLCARKS | 0 ± 0.047
7 | SKICLVCGDEASGCHYGVVTCGSCKVFFKRAVEGQHNYLCAGRNDCIIDKIRRKNCPACRLQKCLQAGMNLDARKS | 0.029 ± 0.059
8 | SKICLVCGDEASGCHYGVVTCGSCKVFFKRAVEGQHNYLCAGRNDCIIDKIRRKNCPACRLQKCLQAGMDLGARKS | 0.014 ± 0.064
9 | SKICLVCGDEASGCHYGVVTCGSCKVFFKRAVEGQHNYLCAGRNDCIIDKIRRKNCPACRLQKCLQAGMVLGARKS | -0.011 ± 0.058
10 | SKICLVCGDEASGCHYGVVTCGSCKVFFKRAVEGQHNYLCAGRNDCIIDKIRRKNCPACRLQKCLQAGMPLGARKS | -0.021 ± 0.039
11 | SKICLVCGDEASGCHYGVVTCGSCKVFFKRAVEGQHNYLCAGRNDCIIDKIRRKNCPACRLQKCLQAGMYLGARKS | -0.009 ± 0.04
12 | SKICLVCGDEASGCHYGVVTCGSCKVFFKRAVEGQHNYLCAGRNDCIIDKIRRKNCPACRLQKCLQAGMHLGARKS | -0.031 ± 0.041
13 | SKICLVCGDEASGCHYGVVTCGSCKVFFKRAVEGQHNYLCAGRNDCIIDKIRRKNCPACRLQKCLQAGMCLGARKS | -0.154 ± 0.054
14 | SKICLVCGDEASGCHYGVVTCGSCKVFFKRAVEGQHNYLCAGRNDCIIDKIRRKNCPACRLQKCLQAGMGLGARKS | -0.082 ± 0.064
15 | SKICLVCGDEASGCHYGVVTCGSCKVFFKRAVEGQHNYLCAGRNDCIIDKIRRKNCPACRLQKCLQAGMFLGARKS | -0.07 ± 0.051
16 | SKICLVCGDEASGCHYGVVTCGSCKVFFKRAVEGQHNYLCAGRNDCIIDKIRRKNCPACRLQKCLQAGMILGARKS | -0.02 ± 0.069
17 | SKICLVCGDEASGCHYGVVTCGSCKVFFKRAVEGQHNYLCAGRNDCIIDKIRRKNCPACRLQKCLQAGMQLGARKS | -0.019 ± 0.048
18 | SKICLVCGDEASGCHYGVVTCGSCKVFFKRAVEGQHNYLCAGRNDCIIDKIRRKNCPACRLQKCLQAGMMLGARKS | -0.044 ± 0.09
19 | SKICLVCGDEASGCHYGVVTCGSCKVFFKRAVEGQHNYLCAGRNDCIIDKIRRKNCPACRLQKCLQAGMKLGARKS | 0.058 ± 0.059
20 | SKICLVCGDEASGCHYGVVTCGSCKVFFKRAVEGQHNYLCAGRNDCIIDKIRRKNCPACRLQKCLQAGMTLGARKS | -0.04 ± 0.039
21 | SKICLVCGDEASGCHYGVVTCGSCKVFFKRAVEGQHNYLCAGRNDCIIDKIRRKNCPACRLQKCLQAGMWLGARKS | -0.087 ± 0.057
22 | SKICLVCGDEASGCHYGVVTCGSCKVFFKRAVEGQHNYLCAGRNDCIIDKIRRKNCPACRLQKCLQAGMSLGARKS | 0.034 ± 0.032
23 | SKICLVCGDEASGCHYGVVTCGSCKVFFKRAVEGQHNYLCAGRNDCIIDKIRRKNCPACRLQKCLQAGMLLGARKS | -0.089 ± 0.044
24 | SKICLVCGDEASGCHYGVVTCGSCKVFFKRAVEGQHNYLCAGRNDCIIDKIRRKNCPACRLQKCLQAGMELGARKS | -0.035 ± 0.063

Row | Variant | abundance fitness
25 | SKICLVCGDEASGCHYGVVTCGSCKVFFKRAVEGQHNYLCAGRNDCIIDKIRRKNCPACRLQKCLQAGMRLGARKS | -0.014 ± 0.044
26 | SKICLVCGDEASGCHYGVVTCGSCKVFFKRAVEGQHNYLCAGRNDCIIDKIRRKNCPACRLQKCLQARMNLGARKS | -0.172 ± 0.039
27 | SKICLVCGDEASGCHYGVVTCGSCKVFFKRAVEGQHNYLCAGRNDCIIDKIRRKNCPACRLQKCLQAVMNLGARKS | -0.518 ± 0.071
28 | SKICLVCGDEASGCHYGVVTCGSCKVFFKRAVEGQHNYLCAGRNDCIIDKIRRKNCPACRLQKCLQAIMNLGARKS | -0.266 ± 0.2
29 | SKICLVCGDEASGCHYGVVTCGSCKVFFKRAVEGQHNYLCAGRNDCIIDKIRRKNCPACRLQKCLQAHMNLGARKS | -0.381 ± 0.18
30 | SKICLVCGDEASGCHYGVVTCGSCKVFFKRAVEGQHNYLCAGRNDCIIDKIRRKNCPACRLQKCLQATMNLGARKS | -0.423 ± 0.092
31 | SKICLVCGDEASGCHYGVVTCGSCKVFFKRAVEGQHNYLCAGRNDCIIDKIRRKNCPACRLQKCLQAPMNLGARKS | -0.451 ± 0.21
32 | SKICLVCGDEASGCHYGVVTCGSCKVFFKRAVEGQHNYLCAGRNDCIIDKIRRKNCPACRLQKCLQAKMNLGARKS | -0.217 ± 0.07
33 | SKICLVCGDEASGCHYGVVTCGSCKVFFKRAVEGQHNYLCAGRNDCIIDKIRRKNCPACRLQKCLQAEMNLGARKS | -0.146 ± 0.052
34 | SKICLVCGDEASGCHYGVVTCGSCKVFFKRAVEGQHNYLCAGRNDCIIDKIRRKNCPACRLQKCLQANMNLGARKS | -0.152 ± 0.1
35 | SKICLVCGDEASGCHYGVVTCGSCKVFFKRAVEGQHNYLCAGRNDCIIDKIRRKNCPACRLQKCLQAAMNLGARKS | -0.382 ± 0.065
36 | SKICLVCGDEASGCHYGVVTCGSCKVFFKRAVEGQHNYLCAGRNDCIIDKIRRKNCPACRLQKCLQADMNLGARKS | -0.164 ± 0.079
37 | SKICLVCGDEASGCHYGVVTCGSCKVFFKRAVEGQHNYLCAGRNDCIIDKIRRKNCPACRLQKCLQAWMNLGARKS | -0.447 ± 0.072
38 | SKICLVCGDEASGCHYGVVTCGSCKVFFKRAVEGQHNYLCAGRNDCIIDKIRRKNCPACRLQKCLQALMNLGARKS | -0.484 ± 0.069
39 | SKICLVCGDEASGCHYGVVTCGSCKVFFKRAVEGQHNYLCAGRNDCIIDKIRRKNCPACRLQKCLQAMMNLGARKS | -0.211 ± 0.084
40 | SKICLVCGDEASGCHYGVVTCGSCKVFFKRAVEGQHNYLCAGRNDCIIDKIRRKNCPACRLQKCLQAQMNLGARKS | -0.153 ± 0.1
41 | SKICLVCGDEASGCHYGVVTCGSCKVFFKRAVEGQHNYLCAGRNDCIIDKIRRKNCPACRLQKCLQAFMNLGARKS | -0.77 ± 0.25
42 | SKICLVCGDEASGCHYGVVTCGSCKVFFKRAVEGQHNYLCAGRNDCIIDKIRRKNCPACRLQKCLQASMNLGARKS | -0.222 ± 0.055
43 | SKICLVCGDEASGCHYGVVTCGSCKVFFKRAVEGQHNYLCAGRNDCIIDKIRRKNCPACRLQKCLQIGMNLGARKS | -0.076 ± 0.18
44 | SKICLVCGDEASGCHYGVVTCGSCKVFFKRAVEGQHNYLCAGRNDCIIDKIRRKNCPACRLQKCLQYGMNLGARKS | -0.264 ± 0.3
45 | SKICLVCGDEASGCHYGVVTCGSCKVFFKRAVEGQHNYLCAGRNDCIIDKIRRKNCPACRLQKCLQLGMNLGARKS | -0.002 ± 0.047
46 | SKICLVCGDEASGCHYGVVTCGSCKVFFKRAVEGQHNYLCAGRNDCIIDKIRRKNCPACRLQKCLQKGMNLGARKS | -0.144 ± 0.065
47 | SKICLVCGDEASGCHYGVVTCGSCKVFFKRAVEGQHNYLCAGRNDCIIDKIRRKNCPACRLQKCLQEGMNLGARKS | 0.092 ± 0.066
48 | SKICLVCGDEASGCHYGVVTCGSCKVFFKRAVEGQHNYLCAGRNDCIIDKIRRKNCPACRLQKCLQDGMNLGARKS | -0.653 ± 0.27

Row | Variant | abundance fitness
49 | SKICLVCGDEASGCHYGVVTCGSCKVFFKRAVEGQHNYLCAGRNDCIIDKIRRKNCPACRLQKCLQWGMNLGARKS | -0.055 ± 0.061
50 | SKICLVCGDEASGCHYGVVTCGSCKVFFKRAVEGQHNYLCAGRNDCIIDKIRRKNCPACRLQKCLQCGMNLGARKS | -0.03 ± 0.095
51 | SKICLVCGDEASGCHYGVVTCGSCKVFFKRAVEGQHNYLCAGRNDCIIDKIRRKNCPACRLQKCLQFGMNLGARKS | -0.121 ± 0.12
52 | SKICLVCGDEASGCHYGVVTCGSCKVFFKRAVEGQHNYLCAGRNDCIIDKIRRKNCPACRLQKCLQQGMNLGARKS | -0.17 ± 0.093
53 | SKICLVCGDEASGCHYGVVTCGSCKVFFKRAVEGQHNYLCAGRNDCIIDKIRRKNCPACRLQKCLQRGMNLGARKS | -0.053 ± 0.041
54 | SKICLVCGDEASGCHYGVVTCGSCKVFFKRAVEGQHNYLCAGRNDCIIDKIRRKNCPACRLQKCLQNGMNLGARKS | -0.084 ± 0.082
55 | SKICLVCGDEASGCHYGVVTCGSCKVFFKRAVEGQHNYLCAGRNDCIIDKIRRKNCPACRLQKCLQHGMNLGARKS | -0.026 ± 0.17
56 | SKICLVCGDEASGCHYGVVTCGSCKVFFKRAVEGQHNYLCAGRNDCIIDKIRRKNCPACRLQKCLQGGMNLGARKS | -0.076 ± 0.047
57 | SKICLVCGDEASGCHYGVVTCGSCKVFFKRAVEGQHNYLCAGRNDCIIDKIRRKNCPACRLQKCLQMGMNLGARKS | 0.055 ± 0.077
58 | SKICLVCGDEASGCHYGVVTCGSCKVFFKRAVEGQHNYLCAGRNDCIIDKIRRKNCPACRLQKCLQAGCNLGARKS | -0.128 ± 0.056
59 | SKICLVCGDEASGCHYGVVTCGSCKVFFKRAVEGQHNYLCAGRNDCIIDKIRRKNCPACRLQKCLQAGHNLGARKS | -0.617 ± 0.14
60 | SKICLVCGDEASGCHYGVVTCGSCKVFFKRAVEGQHNYLCAGRNDCIIDKIRRKNCPACRLQKCLQAGNNLGARKS | -0.523 ± 0.12
61 | SKICLVCGDEASGCHYGVVTCGSCKVFFKRAVEGQHNYLCAGRNDCIIDKIRRKNCPACRLQKCLQAGWNLGARKS | -0.427 ± 0.065
62 | SKICLVCGDEASGCHYGVVTCGSCKVFFKRAVEGQHNYLCAGRNDCIIDKIRRKNCPACRLQKCLQAGYNLGARKS | -0.493 ± 0.23
63 | SKICLVCGDEASGCHYGVVTCGSCKVFFKRAVEGQHNYLCAGRNDCIIDKIRRKNCPACRLQKCLQAGSNLGARKS | -0.341 ± 0.059
64 | SKICLVCGDEASGCHYGVVTCGSCKVFFKRAVEGQHNYLCAGRNDCIIDKIRRKNCPACRLQKCLQAGENLGARKS | -0.307 ± 0.058
65 | SKICLVCGDEASGCHYGVVTCGSCKVFFKRAVEGQHNYLCAGRNDCIIDKIRRKNCPACRLQKCLQAGQNLGARKS | -0.262 ± 0.072
66 | SKICLVCGDEASGCHYGVVTCGSCKVFFKRAVEGQHNYLCAGRNDCIIDKIRRKNCPACRLQKCLQAGKNLGARKS | -0.261 ± 0.059
67 | SKICLVCGDEASGCHYGVVTCGSCKVFFKRAVEGQHNYLCAGRNDCIIDKIRRKNCPACRLQKCLQAGDNLGARKS | -0.293 ± 0.073
68 | SKICLVCGDEASGCHYGVVTCGSCKVFFKRAVEGQHNYLCAGRNDCIIDKIRRKNCPACRLQKCLQAGANLGARKS | -0.058 ± 0.043
69 | SKICLVCGDEASGCHYGVVTCGSCKVFFKRAVEGQHNYLCAGRNDCIIDKIRRKNCPACRLQKCLQAGRNLGARKS | -0.421 ± 0.04
70 | SKICLVCGDEASGCHYGVVTCGSCKVFFKRAVEGQHNYLCAGRNDCIIDKIRRKNCPACRLQKCLQAGFNLGARKS | -0.239 ± 0.086
71 | SKICLVCGDEASGCHYGVVTCGSCKVFFKRAVEGQHNYLCAGRNDCIIDKIRRKNCPACRLQKCLQAGGNLGARKS | -0.235 ± 0.037
72 | SKICLVCGDEASGCHYGVVTCGSCKVFFKRAVEGQHNYLCAGRNDCIIDKIRRKNCPACRLQKCLQAGTNLGARKS | -0.353 ± 0.068
